The nanobody polyreactivity screen of Harvey et al. (2022)

assay: yeast display, Sf9 membrane polyspecificity reagent, FACS + sequencing; frameworks hold sequencing errors
In short: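 After 36–48 hours of galactose induction, yeast (Saccharomyces cerevisiae BJ5465) displaying a synthetic nanobody library were stained at 4 °C for 1 hour with 10% biotinylated, detergent-solubilized Sf9 membrane reagent. Streptavidin microbeads enriched the stained cells before FACS sorting into low and high (top ~1%) gates on anti-HA and streptavidin fluorescence. Each clone's polyreactivity label reflects its gate of origin.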

Row | Sequence | polyreactivity (PSR sort gate)
1 | QVQLVESGGGLVQAGGSLRLSCAASGIIFYIYAMGWYRQAPGKETELVASISFSGTSTYYADSVKGRFTISRDNAKNTVYLQLHSLKPEDTAVYYCNAQTNRPWGWPIGYDYWGQGTQVTVSS | low polyreactivity
2 | QVQLVESGGGLVQAGGSLRLSCAASGSIFRYYAMGWYRQAPGKERELVAAISQSGTSTYYADSVKGRFTISRDNAKNTVYLQMNSLKPEDTAVYYCAAYPYYDRDYWGQGTQVTVSS | low polyreactivity
3 | QVQLVESGGGLDQAGGSLRLICADSGSIFYIYAMGWYIHAPGKETELVASISGSGSTYYADSVKGRFRISRDNAKNTVYLQMNSLKPEDTAVYYCAVELWRVWGAYSYTYDYWGQGTQVTVSS | high polyreactivity
4 | QVQLVESGGGLVQAGGSLRLICAASGSIFSTYTMGWYRQAPGKERELVAAITRSGGSTYYADSVKGRFTISRDNAKNTVYLQMNSLKPEDTAVYYCAAKGKRLRSYYQRYYYWGQGTQVTVSS | high polyreactivity
5 | QVQLVDSGGGLVQAGGSLRLSCAASGSIFPGNPMGWYRQAPGKERELVAVIDFSGASTYYADSVKGRFTISRDNAKNTVYFQMNSLKPEDTADYWGQCTQVTVSS | low polyreactivity
6 | QVQHVDSGGGLVQAGGSLRLSCAASGSTFSLNAMGWYRQAPGKERELVAAISSGDSTNYADSVKGRFTISRDNAKNTVYLQMNSVKPEDTAVYYCAVEVYYTGFYYSPYAYDYWGQGTQVTVSS | low polyreactivity
7 | QVQLVESGGGLVQAGGSLRLSCAASGSIFEGYVMGWYRQAPGKERELVATISFSGGSTYYADSVKGRFTISRDNAKNTVYLQMNSLKPEDTAVYYCNALVYHTKGDYGYWGQGTQVTVSS | low polyreactivity
8 | QVQLVESGGGLVQAGGSLRLSCAASGRTFYYYAMGWYRQAPGKERELVAAISGSGTNTYYADSVKGRFTISRDNAKNTVYLQMNSLKPEDTAVYYCAAEYFGFYTDGGVFDLYYWGQGTQVTVSS | low polyreactivity
9 | QVQLVESGGGLVQAGGSLRLSCAASGFIFNDYAMGWYRQAPGKERELVAAISRSGGSTYYADSVKGRFTISRDNAKNTVYLQMNSLKAEDTAVYYCAADGLSGYRYYYWGQGTQVTVSS | high polyreactivity
10 | QVQLVESGGGLVQAGGSLRLSCAASGLIFSAYAMGWYRQAPGKERELVAGISRRGSTYYADSVKGRFTISRDNAKNTVYLQMNSLKPEDTAVYYCAAYFRVRFRASGYDYWGQGTQVTVSS | high polyreactivity
11 | QVQLVESGGGLVQAGGSLRLSCAASGSIFWVYVMGWYRQAPGKEREFVAAISSSGGRTYYADSVKGRFTISRDNAKNTVYLQMNRLKPEDTAVYYCAARRYWWYSASAMDYWGQGTQVTVSS | high polyreactivity
12 | QVQLVESGGGLVQAGGSLRLNCAASGSIFGQYTMGWYRQAPGKERELVADITSGGSTYYADSVKGRFTISRDNAKNTVYLQMNSLKPEDPAVYYCAAVDWKAHWEMGYWGQGTQVTVSS | low polyreactivity
13 | QVQLVESGGGLVQAGGSLRLSCAASGGTFENYPMGWYRQAPGKERELVAAISSGGSTNYADSVKGRFTISRDNAKNTVYLQMNSLKPEDTAVYYCARYRVWGSNGHKLFHYDYWGQGTQVTVSS | low polyreactivity
14 | QVQLVESGGGLVQAGGSLRLSCAASGRIFKSYVMGWYRQAPGKERELVAAISITGGSTYYADSVKGRFTISRDNAKNTVYLQMNSLKPEDTAVYYCAAEWFGSVQPAYDYWGQGTQVTVSS | high polyreactivity
15 | QVQLVESVGGLVQAGGSLRLSCAASGYTFYRYAMGWYRQAPGKESELVAGISRDGGSTYYADSVKGRFTISRDNAKNTVYLQMNSLKPEDTAVYYCAADKTRYRLGRDYWGQGTQVTVSS | low polyreactivity
16 | QVQLVESGGGLVQAGGSLRLSCAASGSTFRYYAMGWYRQAPGKEREFVAAINWSGTSTYYADSVKGRFTISRDNAKNTVYLQMNRLKPEDTAVYYCNARYGLRYVRYGEMDYWGQGTQVTVSA | high polyreactivity
17 | QVQLVESGGGLVQAGGSLRLSCAASGSTFVSYAMGWYRQEPGKERELVATISQSGGSTSYADSVKGRFTISRDNAKNTVYFQMNCRKPEDTAVYNCAARLRAPHRRSYNYWGQGTQVTVSS | high polyreactivity
18 | QVQLVESGGGLVQAGGSLRLSCAASGNIFYANAMGWYRQAPGKERELVAGITVRGGRTYYADSVKGRFTISRDNAKNTVYLQMNSLKPEDNAVYYCAVRSRGSRYDYWGQGTQVNVSS | high polyreactivity
19 | LVQLVESGGGLVQAGGSLRLSCAASGSIFRYYVMGWYRQAPGKDRELVAAISTGDRTNYADSVKGRFTISRDNPKKTVYLQMNSQKPEDTAVYYCNADYVVGWARLEFNYWGQGTQVTVSS | low polyreactivity
20 | QVQLVESGGGLVQVGGSLRLSCAASGITLSYYAMGWYRQAPGKERELVASITVSRTSTYYADSVKGRFTISRDNAKNTVYLQMNSLKPEDTAVYYCAAYAYQYRFSGYGYWGQGTQVTVSS | low polyreactivity
21 | QVQLVASGGGLVQAGGSLRLSCAATGNTLGYYDMGWYRQAPGKERELVAGITFRGGRTYYADSVKGRFTISRDNPKNTVYLQMKSLKPEDTAVYYCAKRTRYSPGHDYWGLGTQVTVSS | high polyreactivity
22 | PVQLVESGGGLVQAGGSLRLSCAASGFTLYDYAMGWYRPAPGKERELVAAISRSGGRTYYADSVKGRFTISRDNAKNTVYLQMNSLKPEDTAVYYCAADILRGQWYEYDYWGQGTQVTVSS | high polyreactivity
23 | QVQLVESGGGLVQAGGSLRLICAASGSIFTYYTMGWYRQAPGKERELVAAIRWSAGRTYYADSVKGRFTISRDNAKNSVYLQMNSLKPEDTSVYYCAAAERLRHGLKFDYWGQGTQVTVSS | high polyreactivity
24 | QVQLVESGGGLLQAGGSLRLSCAASGIIFFKYAMGWYRQAPGKERELVAAINRSGGSTYYADSVKGRFTISRDNAKNSVSLQMNSLKPEDTAVYYCNARLTLRSYDYWGQGTQVTVSS | low polyreactivity
25 | QVKLVESGGGLDQAGGSLRLSCAASGSTILQTAMGGYRQAPGKARELVASISRGGSTNYADSVKGRFTISRDNAKTSVYLQMNSLKPEDTEVYFCATRSRRSASPVVYHAYYYWGQGTHVTVSS | high polyreactivity
26 | QVQLVESGGGLVQAGGSLRLSCAASGNTFRVYTMGWYRQAPGKERELVAAINSSGRTNYADSVKGRFTISRDNAKNTVYLLMNCLKPEDTAVYYCAADYYQWSTFLGVYEYAYWGQGTQVTVSS | low polyreactivity
27 | QVQLVESGGGLVQAGGSLRLSCAASGRIFWYYAMGWYRQAPGKERELVAAITSGGSTNYADSVKGRFTISRDNEKNTVYLQMNSLKQEDTAVYYCNARWPYSGMNYWGQGTQVTVSS | high polyreactivity
28 | QVQLVESGGGLVQAGGSLRLSCAASGGTFRKNTMGWYRQAPGKERELVAAITRRADRTYYADSVKGRFTISRDNAKNTVYLQMNSLKPEDTAVYYCNAPPPPTKVGGYDYWGQGTQVTVSS | high polyreactivity
29 | QVQLVESGGGLVQAGGSLRLSCAASGSIFITNAMGWYRQAPGKERELVAGITSGGSTYYADSVKGRFTISRDNAKNTFYLQMNSLKPEDTAVYYCAADGVTVTADEYDYWGHGTQVTVSS | low polyreactivity
30 | QVQLVESGGGLVQAGGSLRLSCAASGRTFYEYAMGWYRQAPGKERELVAGITSGGSTNYADSVKGRFTISRDNAKNTVYLQMNSLKPEDTAVYYCDASYWGYEYDYWGQGTQVTVSS | low polyreactivity
